This data set in a line: yeast display, Sf9 membrane polyspecificity reagent, FACS + sequencing; frameworks hold sequencing errors. In short, it runs like this:
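Genes from sorted yeast were amplified by colony PCR, read by MiSeq 2 × 250 sequencing and filtered on CDR length. These cells carried a synthetic nanobody library in Saccharomyces cerevisiae BJ5465 and were sorted by FACS into low and high (top ~1%) gates on anti-HA and streptavidin fluorescence. Polyreactivity is labelled according to the gate of origin.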
“QLQLQESGGGLVLAGGSLRLSCSASGNISVYGSMCWYRQAPGKEREFVATIDPGTNTNYADSVKDRFTISRDNAKNTVYLQMNSLKPEDTAVSYCAVEAGSDWPYRYRGQGTQVTVSS”: the “polyreactivity (PSR sort gate)” value was “low polyreactivity”.

With “QLQLQESGGGLVQSGGSLRLSCAASGTISFTRDMGWYRQAPGKEREFVASIDRGASTYYADSVKGRFTISRDNAKNTVYLQMNSLKPEDTAVYYRAFIAPFYSSFAYWGQGTQVTVSS”, the “polyreactivity (PSR sort gate)” value is “high polyreactivity”.

With “QLQLVESGGALVQAGGSLRLSCAASGFTFSRNVMGWYRQAPGKERELVAAISSGSTYYADSVKGRFTISRDNAKKTVYLQMNSLKPEDTAVYYCAKRGRLRNYDYWGQGTKVTVSS”, the “polyreactivity (PSR sort gate)” value is given as “high polyreactivity”.

Consider “QLQLVESGGGLVQAGGILRLSCAASGLIFAEYAMGWYRQAPAKERELVARITSGGSTDYADSVKGRFTISRDNAKNTVYLQMNSLKPEDTAVYYCAARYYSQDKNASTASDFDYWGQGTQVTVSS”, for which the “polyreactivity (PSR sort gate)” value is listed as “low polyreactivity”.

For the sequence “QLQLVESGGGLVQAGGSLRLSCAASGFIFHRNAMGWYRQAPGKERELVAAISGSGGSTYYADSVNGRFTISRDNAKNTVYLQMNSLKPEDTAVYYCAKRGRSTYGYDYWGQGTQVNVSS”, the “polyreactivity (PSR sort gate)” value is recorded as “high polyreactivity”.

Consider “QLQLVESGGGLVQAGGSLRLSCAASGFIFYYNVMGWYRQAPGKERELVAAIRYRGTITYYADSVKGRFTISRDIAKNTVYLQMNSLKPEDTAVYYCARRQRNYYRSSPGGDYWGQGTQVTVSS”, for which the “polyreactivity (PSR sort gate)” value was “low polyreactivity”.

Take “QLQLVESGGGLVQAGGSLRLSCAASGFISWCNAMGWYRQAPGKERELVAAISWRDARTYYADSVKGRFTLSRDNAKNTVYLQMNSLKPEDTAVYYCNAVTAYVSRYLRGYRWFDYWGQGTQVTVSS”: the “polyreactivity (PSR sort gate)” value is given as “low polyreactivity”.

For “QLQLVESGGGLVQAGGSLRLSCAASGFTFRWNGMGWYRQAPGKERELVPSISSTGGSTYYADSVKGRFTISRDNAKNTVYLQMNSLKPEDTAVYYCNAVVTYHYSVTSVGSRFDYWGQGTQVTVSS”, the “polyreactivity (PSR sort gate)” value is reported as “high polyreactivity”.

For “QLQLVESGGGLVQAGGSLRLSCAASGFTFYYNALGWYRQAPGKDRELVSSITRSGGRTYYAESVKGRFTISRENAKNTVYLQKNSLKPEDTAVYFCARRYPGGYYWGQGTQVTVSS”, the “polyreactivity (PSR sort gate)” value is “high polyreactivity”.

As for “QLQLVESGGGLVQAGGSLRLSCAASGIIFIYNGMGWYRQAPGKERELVATINWSGGNTYYADSVKGRFTISRDNAKNTVYLQMNSLKPEDTAVYYCAVRGSRYWGYDYWGQGTQVTVSS”, the “polyreactivity (PSR sort gate)” value was “low polyreactivity”.

Consider “QLQLVESGGGLVQAGGSLRLSCAASGITFPFYDMGWYRQAPGKEREFVAAISWSAGNTYYADSVKGRFTISRDNAKNTVYLQMNSLKPEDTAVYYCAAYGPSYEEDYWGQGTQVTVSS”, for which the “polyreactivity (PSR sort gate)” value is “high polyreactivity”.

Turning to “QLQLVESGGGLVQAGGSLRLSCAASGLTIWRYAKGCYRQAPGKEREFVATISQNGGRTYYADSVKGRFTISRDNAKNSVYLQMNSLKPEDTAVYYCAADDWRWGYDYWVQGTQVTVSS”, the “polyreactivity (PSR sort gate)” value is on record as “high polyreactivity”.

Regarding “QLQLVESGGGLVQAGGSLRLSCAASGNIFNYYAMGWYRQATGKERELVAAIRSGARTSYADSVKGRFTISRDNAKNTVYLQMNSLKPEDTAVYYCAASRFRWVQRDDYWGQGTQVTVSS”, the “polyreactivity (PSR sort gate)” value is listed as “high polyreactivity”.

Regarding “QLQLVESGGGLVQAGGSLRLSCAASGNNIVFYAMGRYRQAPGKERELVAAMTSGGSTNYADSVKGRFTISRDNAKNTVYLQMNSLKPEATAVYYCAARQWFAHRRWGGSRYDYWGQGTQGTVSS”, the “polyreactivity (PSR sort gate)” value is listed as “low polyreactivity”.

Regarding “QLQLVESGGGLVQAGGSLRLSCAASGRIRYIAIGWYRQAPWKERELVAAITSSGGSTYYADSVKGRFTISRDNAKYTVDLQMNRLKPEDTAVYYCNAVASLSVDYWGQGTQVTVSS”, the “polyreactivity (PSR sort gate)” value is on record as “high polyreactivity”.

As to “QLQLVESGGGLVQAGGSLRLSCAASGRIVKYDMGWYRQAPGKERELVAAISGSGGTTNYADSVKGRFTISRDNAKNTVYLKLNSLKPEETAVYYCAASRPRPPSSRRMDYWGQGTQVTVSS”, the “polyreactivity (PSR sort gate)” value is given as “high polyreactivity”.

For the sequence “QLQLVESGGGLVQAGGSLRLSCAASGRTFFGYAMGWYSQAPGKERELVATIDGSDGSTFYADSGKGRFTISRDNAKNTVYLQMNSLKPEDTAVYYCAAENFWQTKEYDYWGQGTQVTVSS”, the “polyreactivity (PSR sort gate)” value was “low polyreactivity”.

On to “QLQLVESGGGLVQAGGSLRLSCAASGRTFRINTMGWYRPAPGKERELVATITGSGGSTYYADSVKGRFTISRDNAKNTVYLQMNSLKPEDTAVYYCAAVGDQNEYDYWGQGTQVTVSS”, for which the “polyreactivity (PSR sort gate)” value is on record as “low polyreactivity”.

Regarding “QLQLVESGGGLVQAGGSLRLSCAASGRTFVSIALGWYRQAPGKERELFAGINWTDDSTYYADSVKGRFTISRDNAKHSVYLQMNCLKPEDTAVYYCAADQQDGLWDYQDWYDYWGPGTQVTVSS”, the “polyreactivity (PSR sort gate)” value is recorded as “low polyreactivity”.

Regarding “QLQLVESGGGLVQAGGSLRLSCAASGRTFWYYTMGWYRQAPGKERELVAAISSGGRTNYADSVKGRFTISLDNAKNTVYLQMNSLKPEDTAVYYCATSRYYKYVERDYWGQGTLVTVSS”, the “polyreactivity (PSR sort gate)” value is recorded as “high polyreactivity”.

Consider “QLQLVESGGGLVQAGGSLRLSCAASGRTFYVNAMGWYRQAHGKERELVARISSSGITYYAVSVKGRFTISRDNAKNTVYLQMNSLKPEDTAVYYCAAGPWFYYWGQGTQVTVSS”, for which the “polyreactivity (PSR sort gate)” value is given as “low polyreactivity”.

“QLQLVESGGGLVQAGGSLRLSCAASGRTSRRYAMGWYRQAPGKERELVAAIRGSGGSTYYADSVKGRFTISRDNAKNTVYLQMNSLKPEDTAVYYCAADWSFWSLAYPSAKFYAEFDYWGQGTQVTVSS”: the “polyreactivity (PSR sort gate)” value is on record as “high polyreactivity”.

As for “QLQLVESGGGLVQAGGSLRLSCAASGSIFDQNAMGWYRHAPGKERELVAAISKSGGSTYYADSVKGRFTISRDNAKNTVYLQLNSLKPEDTAVYYCAARYHYPGNWYNYWGQGTQVTVSS”, the “polyreactivity (PSR sort gate)” value is “low polyreactivity”.

Turning to “QLQLVESGGGLVQAGGSLRLSCAASGSIFGGYAMGWYRQAPGKERELVAAITGTDTTNYADSVKGRFTISRDNAKNTVYLQMNSLKPEDTAVFYCNADYQPVAAVYNYDYWGQGTQVTVSS”, the “polyreactivity (PSR sort gate)” value is “low polyreactivity”.

Take “QLQLVESGGGLVQAGGSLRLSCAASGSIFHGNVMGRYRHAPGKEMELVAAISSSGGSTYYADSVKGRFTISRDIAKNTVYLQMNSLKPEDNAVYYCAARNRYWGQGTQVTVSS”: the “polyreactivity (PSR sort gate)” value is given as “high polyreactivity”.

Consider “QLQLVESGGGLVQAGGSLRLSCAASGSIFLIYDMGWYRQAPGKEMELVAAISNSVGSTYADSVKGRFTISRDNAKNTVYLQMNSLKPEDTAVYYCNADSGPIDGRGGYWGQGTQVTVSS”, for which the “polyreactivity (PSR sort gate)” value is “low polyreactivity”.

As to “QLQLVESGGGLVQAGGSLRLSCAASGSIFRWYTMGWYRQAPGKERELVAAISSGGSTNYADSVKGRFTISRDNAKNTVYLQMNSLKPEDTAVYYCAARAIYKSKYDYWGQGTQVTVSS”, the “polyreactivity (PSR sort gate)” value is on record as “high polyreactivity”.

Consider “QLQLVESGGGLVQAGGSLRLSCAASGSIFYGYAKGWYRQAPGTERELVAAINTSGGSTFYADSVKGRFTISRDNANNTVYLQMNSLKPEDTAVYYCAAERYRYRSTDTMGYWGQGTQVTVSS”, for which the “polyreactivity (PSR sort gate)” value is “low polyreactivity”.

For the sequence “QLQLVESGGGLVQAGGSLRLSCAASGSILSRYAMGWYRQAPGKEMELVAGITRGGSTNYADSVKGRFTISRDNAKNTVYLHMNSLKPEDTAVYYGAKASRRFLTLGYDYWGQGTQVTVSS”, the “polyreactivity (PSR sort gate)” value is on record as “high polyreactivity”.

With “QLQLVESGGGLVQAGGSLRLSCAASGSTFGPYTMGWYRQAPGKERELVATISSGGSTYYADSVKGRFTISRDNAKNTVYLQMNSLKPEDTAVYYCAARYWSIYDYWGQGTQVTVSS”, the “polyreactivity (PSR sort gate)” value is “low polyreactivity”.

(Values after the nanobody polyreactivity screen of Harvey et al. (2022).)
